Experimental data: patent US20220202905A1, “COMPOSITION FOR PREVENTING OR TREATING NEUROTROPHIC KERATITIS WHICH CONTAINS PACAP PEPTIDE OR STABILIZED PACAP PEPTIDE” (SENJU PHARMACEUTICAL CO., LTD., priority 2019, published 2022)
Square brackets hold non-standard residues; d marks the D form. Peptide text beside a SMILES is read from it. * marks the point of attachment. Ala(1H-tetrazol-5-yl) = N[C@@H](Cc1nnn[nH]1)C(=O)O; Ms = CS(=O)(=O)*

B1: Peptide 4 (peptide)
peptide: HSDGIFTXSYSRYRKQMAVKKYLAAVL
modifications: Tz (aspartic acid with carboxyl group replaced by tetrazole) at position 8; C-terminal amide (NH2)
B2: Peptide 5 (peptide)
peptide: HSXGIFTXSYSRYRKQMAVKKYLAAVL
modifications: Tz (aspartic acid with carboxyl group replaced by tetrazole) at positions 3 and 8; C-terminal amide (NH2)
B3: Peptide 10 (peptide)
peptide: HSXGIFTXSYSRYRKQMAVKKYLAAVL
modifications: N-terminal acetyl (Ac-); Tz (aspartic acid with carboxyl group replaced by tetrazole) at positions 3 and 8; C-terminal amide (NH2)
B4: Peptide 11 (peptide)
peptide: HSXGIFTXSYSRYRKQXAVKKYLAAVL
modifications: N-terminal mesyl (Ms-); Tz (aspartic acid with carboxyl group replaced by tetrazole) at positions 3 and 8; norleucine at position 17; C-terminal amide (NH2)
B5: Peptide 12 (peptide)
peptide: HSXGIFTXSYSRYRKQLAVKKYLAAVL
modifications: N-terminal mesyl (Ms-); Tz (aspartic acid with carboxyl group replaced by tetrazole) at positions 3 and 8; C-terminal amide (NH2)
B6: Peptide 13 (peptide)
peptide: HSXGIFTXSYSRYRKXLAVKKYLAAVL
modifications: N-terminal acetyl (Ac-); Tz (aspartic acid with carboxyl group replaced by tetrazole) at positions 3 and 8; egTz (glutamine with amide replaced by tetrazole) at position 16; C-terminal amide (NH2)
B7: Peptide 14 (peptide)
peptide: HAXGIFTXSYSRYRKQLAVKKYLAAVL
modifications: N-terminal acetyl (Ac-); Tz (aspartic acid with carboxyl group replaced by tetrazole) at positions 3 and 8; C-terminal amide (NH2)
B8: Peptide 15 (peptide)
peptide: HSXGIFTXAYSRYRKQLAVKKYLAAVL
modifications: N-terminal acetyl (Ac-); Tz (aspartic acid with carboxyl group replaced by tetrazole) at positions 3 and 8; C-terminal amide (NH2)
B9: Peptide 16 (peptide)
peptide: HSXGIFTXSYARYRKQLAVKKYLAAVL
modifications: N-terminal acetyl (Ac-); Tz (aspartic acid with carboxyl group replaced by tetrazole) at positions 3 and 8; C-terminal amide (NH2)
B10: Peptide 17 (peptide)
peptide: HSXGIFTXSYSRYRKALAVKKYLAAVL
modifications: N-terminal acetyl (Ac-); Tz (aspartic acid with carboxyl group replaced by tetrazole) at positions 3 and 8; C-terminal amide (NH2)
B11: Peptide 18 (peptide)
peptide: HSXGIFTXSYSRYRKQAAVKKYLAAVL
modifications: N-terminal acetyl (Ac-); Tz (aspartic acid with carboxyl group replaced by tetrazole) at positions 3 and 8; C-terminal amide (NH2)
B12: Peptide 19 (peptide)
peptide: HSXGIFTXSYSRYRKQLAAKKYLAAVL
modifications: N-terminal acetyl (Ac-); Tz (aspartic acid with carboxyl group replaced by tetrazole) at positions 3 and 8; C-terminal amide (NH2)
B13: Peptide 20 (peptide)
peptide: HSXGIFTXSYSRYRKQLAVKKYLAAVA
modifications: N-terminal acetyl (Ac-); Tz (aspartic acid with carboxyl group replaced by tetrazole) at positions 3 and 8; C-terminal amide (NH2)
B14: Peptide 3 (peptide)
peptide: HSXGIFTDSYSRYRKQMAVKKYLAAVL
modifications: Tz (aspartic acid with carboxyl group replaced by tetrazole) at position 3; C-terminal amide (NH2)

Biological target: T1, PAC1 receptor (UniProt P41586 21-468, limits assumed)
T1 sequence (looked up): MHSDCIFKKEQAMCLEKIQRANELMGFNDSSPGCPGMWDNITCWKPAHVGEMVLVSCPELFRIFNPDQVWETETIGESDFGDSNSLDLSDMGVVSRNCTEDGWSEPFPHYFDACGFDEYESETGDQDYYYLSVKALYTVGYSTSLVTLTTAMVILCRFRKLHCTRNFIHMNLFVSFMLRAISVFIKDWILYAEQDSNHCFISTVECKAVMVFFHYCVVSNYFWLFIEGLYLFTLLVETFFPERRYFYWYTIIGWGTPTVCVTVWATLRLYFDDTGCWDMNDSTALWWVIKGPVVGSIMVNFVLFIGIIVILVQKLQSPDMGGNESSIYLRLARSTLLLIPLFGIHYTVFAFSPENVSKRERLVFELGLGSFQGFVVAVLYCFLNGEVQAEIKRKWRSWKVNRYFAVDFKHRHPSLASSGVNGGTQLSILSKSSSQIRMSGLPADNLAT
Experiment: cell-based or functional assay
Settings: not given

Molecule	EC50 (PAC1R), cAMP inducing effect
B1	40 pM
B2	33 pM
B3	76 pM
B4	38 pM
B5	23 pM
B6	132 pM
B7	74 pM
B8	61 pM
B9	330 pM
B10	99 pM
B11	61 pM
B12	94 pM
B13	80 pM

Biological target: T2, VPAC1 receptor (UniProt P32241 31-457, limits assumed)
T2 sequence (looked up): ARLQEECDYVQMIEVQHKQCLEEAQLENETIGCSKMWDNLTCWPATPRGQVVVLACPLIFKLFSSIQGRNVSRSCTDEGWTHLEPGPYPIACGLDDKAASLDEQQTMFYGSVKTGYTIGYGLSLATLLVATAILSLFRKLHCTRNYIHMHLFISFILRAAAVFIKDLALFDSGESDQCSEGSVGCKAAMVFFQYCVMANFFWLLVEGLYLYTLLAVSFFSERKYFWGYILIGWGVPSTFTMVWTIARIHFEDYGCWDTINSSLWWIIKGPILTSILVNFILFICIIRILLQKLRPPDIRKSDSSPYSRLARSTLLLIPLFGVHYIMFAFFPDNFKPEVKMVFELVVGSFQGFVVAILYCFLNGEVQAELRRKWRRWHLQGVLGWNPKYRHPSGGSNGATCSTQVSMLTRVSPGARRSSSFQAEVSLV
Experiment: cell-based or functional assay
Settings: not given

Molecule	EC50 (VPAC1R), cAMP inducing effect
B14	101 pM
B1	53 pM
B2	64 pM
B3	101 pM
B4	190 pM
B5	87 pM
B6	72 pM
B7	99 pM
B8	149 pM
B9	65 pM
B10	132 pM
B11	33 pM
B12	44 pM
B13	40 pM

Test system: not listed separately
Experiment: Peptide stability test, Tris buffer (pH 7.0), 60° C. storage, HPLC remaining rate
Format: physicochemical
Settings: Table 7-2; 100 μM in Tris buffer pH 7.0
Procedure: Peptides 1, 2 and 6 to 9 synthesized in Example 2 were weighed and dissolved in Tris buffer (pH 7.0) to prepare 1.0 mM peptide solutions. Each solution was filtered with a Chromatdisk (product of Merck Millipore, Millex-GV, 0.22 μm). The filtrate was diluted to 100 μM with Tris buffer (pH 7.0) and dispensed into a tube (Protein LoBind Tube by Eppendorf Co.). The prepared peptide solutions were incubated for 1 week or 2 weeks in a 60° C. thermostatic bath to obtain stored samples. A simultaneously prepared sample among the peptide solutions that was not stored was used as a standard sample (initial sample). The standard sample and the stored samples were stored at −30° C. until sample analysis. Each stored sample was measured under the following HPLC analysis conditions 2, and the remaining rate after correction for water for each peptide among the stored samples was calculated in the same manner as Example 3. Guard column: XSelect CSH C18 by Waters Co., 5 μm, 4.6×20 mm Guard Cartridge Detection wavelength: 220 nm Mobile phase A: 0.1% formic acid aqueous solution Mobile phase B: 0.1% acetonitrile formate solution Measuring time: 20 minutes Measuring sample injection rate: 50 μL Flow rate: 1.0 mL/min Column temperature: 40° C. Sample cooler: 25° C. Mobile phase delivery: The mixing ratio of mobile phase A and mobile phase B was varied as shown in Table 5 for linear concentration gradient control. Peptides 12 to 25, 27 and 28 synthesized in Example 2 were weighed and dissolved in Tris buffer (pH 7.0) to prepare 1.0 mM peptide solutions. Each solution was filtered with a Chromatdisk (product of Merck Millipore, Millex-GV, 0.22 μm). The filtrate was diluted to 100 μM with Tris buffer (pH 7.0) and dispensed into a tube (Protein LoBind Tube by Eppendorf Co.). The prepared peptide solutions were incubated for one week or 2 weeks in a 60° C. thermostatic bath to obtain stored samples. A simultaneously prepared sample among the peptide solutions that was not stored was used as a standard sample (initial sample). The standard sample and the stored samples were stored at −30° C. until sample analysis. The remaining rate after correction for water for each peptide among the stored samples was calculated in the same manner as Example 4, and the results are shown in Table 7. Peptides 29 to 34 synthesized in Example 2 were weighed and dissolved in Tris buffer (pH 7.0) to prepare 1.0 mM peptide solutions. Each solution was filtered with a Chromatdisk (product of Merck Millipore, Millex-GV, 0.22 μm). The filtrate was diluted to 100 μM with Tris buffer (pH 7.0) and dispensed into a tube (Protein LoBind Tube by Eppendorf Co.). The prepared peptide solutions were incubated for 2 weeks in a 60° C. thermostatic bath to obtain stored samples. A simultaneously prepared sample among the peptide solutions that was not stored was used as a standard sample (initial sample). The standard sample and the stored samples were stored at −30° C. until sample analysis. The remaining rate after correction for water for each peptide among the stored samples was calculated in the same manner as Example 4, and the results are shown in Table 7-2. Peptide 26 synthesized in Example 2 was weighed and dissolved in Tris buffer (pH 7.0) to prepare a 1.0 mM peptide solution. The solution was filtered with a Chromatdisk (product of Merck Millipore, Millex-GV, 0.22 μm). The filtrate was diluted to 100 μM with Tris buffer (pH 7.0) and dispensed into a tube (Protein LoBind Tube by Eppendorf Co.). The prepared peptide solution was incubated for one week or 2 weeks in a 60° C. thermostatic bath to obtain stored samples. A simultaneously prepared sample among the peptide solutions that was not stored was used as a standard sample (initial sample). The standard sample and the stored sample were stored at −30° C. until sample analysis. […]

Molecule	remaining rate after correction for water, 60° C., 2 weeks preservation
CC[C@H](C)[C@H](NC(=O)CNC(=O)[C@H](Cc1nnn[nH]1)NC(=O)[C@H](CO)NC(=O)[C@H](Cc1c[nH]cn1)NS(C)(=O)=O)C(=O)N[C@@H](Cc1ccccc1)C(=O)N[C@H](C(=O)N[C@@H](Cc1nnn[nH]1)C(=O)N[C@@H](C)C(=O)N[C@@H](Cc1ccc(O)cc1)C(=O)N[C@@H](CO)C(=O)N[C@@H](CCCNC(=N)N)C(=O)N[C@@H](Cc1ccc(O)cc1)C(=O)N[C@@H](CCCNC(=N)N)C(=O)N[C@@H](CCCCN)C(=O)N[C@@H](CCC(N)=O)C(=O)N[C@@H](CC(C)C)C(=O)N[C@@H](C)C(=O)N[C@H](C(=O)N[C@@H](CCCCN)C(=O)N[C@@H](CCCCN)C(=O)N[C@@H](Cc1ccc(O)cc1)C(=O)N[C@@H](CC(C)C)C(=O)N[C@@H](C)C(=O)N[C@@H](C)C(=O)N[C@H](C(=O)N[C@@H](CC(C)C)C(N)=O)C(C)C)C(C)C)[C@@H](C)O [Peptide 29] (Ms-HS[Ala(1H-tetrazol-5-yl)]GIFT[Ala(1H-tetrazol-5-yl)]AYSRYRKQLAVKKYLAAVL-NH2)	91.9%

Same assay, conditions: Table 7; 100 μM in Tris buffer pH 7.0

Molecule	remaining rate after correction for water, 60° C., 1 week preservation	remaining rate after correction for water, 60° C., 2 weeks preservation
CC[C@H](C)[C@H](NC(=O)CNC(=O)[C@H](Cc1nnn[nH]1)NC(=O)[C@H](CO)NC(=O)[C@H](Cc1c[nH]cn1)NC(C)=O)C(=O)N[C@@H](Cc1ccccc1)C(=O)N[C@H](C(=O)N[C@@H](Cc1nnn[nH]1)C(=O)N[C@@H](CO)C(=O)N[C@@H](Cc1ccc(O)cc1)C(=O)N[C@@H](CO)C(=O)N[C@@H](CCCNC(=N)N)C(=O)N[C@@H](Cc1ccc(O)cc1)C(=O)N[C@@H](CCCNC(=N)N)C(=O)N[C@@H](CCCNC(=N)N)C(=O)N[C@@H](CCC(N)=O)C(=O)N[C@@H](CC(C)C)C(=O)N[C@@H](C)C(=O)N[C@H](C(=O)N[C@@H](CCCNC(=N)N)C(=O)N[C@@H](CCCNC(=N)N)C(=O)N[C@@H](Cc1ccc(O)cc1)C(=O)N[C@@H](CC(C)C)C(=O)N[C@@H](C)C(=O)N[C@@H](C)C(=O)N[C@H](C(=O)N[C@@H](CC(C)C)C(N)=O)C(C)C)C(C)C)[C@@H](C)O [Peptide 21] (Ac-HS[Ala(1H-tetrazol-5-yl)]GIFT[Ala(1H-tetrazol-5-yl)]SYSRYRRQLAVRRYLAAVL-NH2)	97.8%	93.5%
CC[C@H](C)[C@H](NC(=O)CNC(=O)[C@H](Cc1nnn[nH]1)NC(=O)[C@H](CO)NC(=O)[C@H](Cc1c[nH]cn1)NC(C)=O)C(=O)N[C@@H](Cc1ccccc1)C(=O)N[C@H](C(=O)N[C@@H](Cc1nnn[nH]1)C(=O)N[C@@H](CO)C(=O)N[C@@H](Cc1ccc(O)cc1)C(=O)N[C@@H](CO)C(=O)N[C@@H](CCCNC(=N)N)C(=O)N[C@@H](Cc1ccc(O)cc1)C(=O)N[C@@H](CCCNC(=N)N)C(=O)N[C@@H](CCCNC(=N)N)C(=O)N[C@@H](CCC(N)=O)C(=O)N[C@@H](CC(C)C)C(=O)N[C@@H](C)C(=O)N[C@H](C(=O)N[C@@H](CCCNC(=N)N)C(=O)N[C@@H](CCCNC(=N)N)C(=O)N[C@@H](Cc1ccc(O)cc1)C(=O)N[C@@H](CC(C)C)C(=O)N[C@@H](C)C(=O)N[C@@H](C)C(=O)N[C@H](C(=O)N[C@@H](CC(C)C)C(=O)NCC(=O)N[C@@H](CCCNC(=N)N)C(=O)N[C@@H](CCCNC(=N)N)C(N)=O)C(C)C)C(C)C)[C@@H](C)O [Peptide 22] (Ac-HS[Ala(1H-tetrazol-5-yl)]GIFT[Ala(1H-tetrazol-5-yl)]SYSRYRRQLAVRRYLAAVLGRR-NH2)	98.2%	–
